Source: patent US20210017532A1 (INSTITUTE OF GENETICS AND DEVELOPMENTAL BIOLOGY CHINESE …, published 2021)
Read-outs that look alike come from different tables or passages of the source.

Key:
His-UBQ10 [1] = test system: His-UBQ10
Flag-OsSPL14, Q7EXZ2 = target: T1, Flag-OsSPL14, Q7EXZ2
T1 chain: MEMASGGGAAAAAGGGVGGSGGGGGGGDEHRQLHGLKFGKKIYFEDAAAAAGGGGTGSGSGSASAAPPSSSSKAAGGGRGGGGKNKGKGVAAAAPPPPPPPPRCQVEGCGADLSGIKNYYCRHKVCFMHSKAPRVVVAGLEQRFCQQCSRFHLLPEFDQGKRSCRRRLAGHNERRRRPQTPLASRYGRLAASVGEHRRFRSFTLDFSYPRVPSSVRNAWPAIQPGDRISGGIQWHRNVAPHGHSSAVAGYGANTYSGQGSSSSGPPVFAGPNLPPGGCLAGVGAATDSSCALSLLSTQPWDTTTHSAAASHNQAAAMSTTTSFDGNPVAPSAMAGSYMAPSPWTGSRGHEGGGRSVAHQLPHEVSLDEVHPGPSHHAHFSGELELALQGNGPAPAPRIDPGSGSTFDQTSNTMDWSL

OsSPL14 = target: T2, OsSPL14 (rice, UniProt Q7EXZ2 1-417); assay: summary sentence of Example 1
T2 construct: also called SBP-domain transcription factor OsSPL14
T2 sequence (looked up): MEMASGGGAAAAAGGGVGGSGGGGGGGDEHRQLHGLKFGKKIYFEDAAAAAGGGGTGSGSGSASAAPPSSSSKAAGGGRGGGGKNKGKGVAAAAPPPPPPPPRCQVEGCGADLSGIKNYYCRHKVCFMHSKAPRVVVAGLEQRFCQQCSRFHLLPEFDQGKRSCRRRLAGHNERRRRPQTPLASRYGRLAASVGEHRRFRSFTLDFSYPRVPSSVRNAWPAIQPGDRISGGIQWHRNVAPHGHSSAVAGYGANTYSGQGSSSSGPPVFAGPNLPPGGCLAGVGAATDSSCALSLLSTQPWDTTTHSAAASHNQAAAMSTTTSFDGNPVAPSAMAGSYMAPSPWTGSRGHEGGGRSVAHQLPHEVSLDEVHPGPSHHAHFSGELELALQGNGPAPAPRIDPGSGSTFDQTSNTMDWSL

OsUBC13 = target: T3, OsUBC13 (rice); assay: summary sentence of Example 1
T3 construct: Used for sentences that name OsUBC13 in general or cover several assay formats; also called E2 ubiquitin-conjugating protein
T3 chain: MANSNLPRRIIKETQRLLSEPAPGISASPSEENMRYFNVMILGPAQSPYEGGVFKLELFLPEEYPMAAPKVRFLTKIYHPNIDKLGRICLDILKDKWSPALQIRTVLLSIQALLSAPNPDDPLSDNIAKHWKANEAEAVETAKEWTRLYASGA

[2] = target: T4, recombinant GST-OsSPL14 fusion protein, Q7EXZ2
T4 chain: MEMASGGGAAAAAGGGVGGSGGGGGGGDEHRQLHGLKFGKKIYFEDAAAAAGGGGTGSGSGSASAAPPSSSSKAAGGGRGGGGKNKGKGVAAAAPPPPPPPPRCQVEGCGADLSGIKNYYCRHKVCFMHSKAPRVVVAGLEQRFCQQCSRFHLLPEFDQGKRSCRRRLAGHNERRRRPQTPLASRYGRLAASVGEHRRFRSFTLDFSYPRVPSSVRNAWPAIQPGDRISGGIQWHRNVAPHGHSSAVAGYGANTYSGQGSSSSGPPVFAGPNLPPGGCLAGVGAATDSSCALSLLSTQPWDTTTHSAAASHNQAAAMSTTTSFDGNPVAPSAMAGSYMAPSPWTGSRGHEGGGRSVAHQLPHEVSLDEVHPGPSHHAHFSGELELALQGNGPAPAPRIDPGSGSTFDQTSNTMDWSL

His-UBQ10 [3] = target: His-UBQ10; remark: listed apart in the source
[4] = target: T5, full length OsUBC13 in pGADT7 (rice); assay: yeast two-hybrid (pGBKT7 / pGADT7, strain AH109)
T5 construct: Yeast two-hybrid prey; not shown: fusion partner encoded by vector pGADT7
T5 chain: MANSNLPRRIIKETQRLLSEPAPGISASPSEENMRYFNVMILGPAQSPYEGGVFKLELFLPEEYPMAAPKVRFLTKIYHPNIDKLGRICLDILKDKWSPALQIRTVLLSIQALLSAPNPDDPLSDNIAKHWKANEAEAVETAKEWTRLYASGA
Method: Yeast two-hybrid assays. Yeast two-hybrid assays were performed as described elsewhere^{14, 21}. The full length OsOTUB1.1 cDNA and an OsOTUB1 C-terminal fragment were amplified from ZH11 cDNA and inserted into pGBKT7 (Takara Bio Inc.), while the full length OsUBC13 cDNA and an OsSPL14 C-terminal fragment were inserted into pGADT7 (Takara Bio Inc.). Each of these plasmids was validated by sequencing before being transformed into yeast strain AH109. The required β-galactosidase assays were performed according to the manufacturer's (Takara Bio Inc.) protocol. Cells harboring either an empty pGBKT7 or an empty pGADT7 were used as the negative control. The entire OsOTUB1 sequence or a C-terminal fragment were used as the bait to screen a cDNA library prepared from poly(A)-containing RNA isolated from rice young panicles (<0.2 cm in length). The experimental procedures for screening and plasmid isolation followed the manufacturer's (Takara Bio Inc.) protocol.

[5] = target: T6, YFP-fragment-tagged OsUBC13 (BiFC construct) (rice); assay: BiFC in rice protoplasts
T6 construct: BiFC in rice protoplasts; not shown: YFP fragment from pSY-735-35S-cYFP-HA or pSY-736-35S-nYFP-EE
T6 chain: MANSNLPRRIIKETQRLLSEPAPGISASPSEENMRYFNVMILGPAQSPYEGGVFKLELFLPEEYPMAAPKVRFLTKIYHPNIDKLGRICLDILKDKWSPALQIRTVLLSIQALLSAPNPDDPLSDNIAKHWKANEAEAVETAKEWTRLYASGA

[6] = target: T7, N-terminus of YFP-tagged deleted version of OsSPL14 (rice, UniProt Q7EXZ2 1-417); assay: BiFC in rice protoplasts with deleted versions of OsSPL14
T7 construct: not shown: N-terminal fragment of YFP
T7 sequence (looked up): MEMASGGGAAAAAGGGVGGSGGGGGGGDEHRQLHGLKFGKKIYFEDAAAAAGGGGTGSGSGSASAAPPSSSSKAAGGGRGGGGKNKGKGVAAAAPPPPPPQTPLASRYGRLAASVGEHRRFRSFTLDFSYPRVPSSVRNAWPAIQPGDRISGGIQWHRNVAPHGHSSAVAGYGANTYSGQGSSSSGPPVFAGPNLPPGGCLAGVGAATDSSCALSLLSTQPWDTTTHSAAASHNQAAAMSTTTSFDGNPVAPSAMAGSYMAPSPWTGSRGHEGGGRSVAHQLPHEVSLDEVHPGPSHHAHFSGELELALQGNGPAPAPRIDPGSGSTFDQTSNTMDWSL
Source text: (a) BiFC assays. The N-terminus of YFP-tagged OsSPL14, SBP-domain or a deleted version of OsSPL14 was co-transformed into rice protoplasts along with the C-terminus of YFP-tagged OsOTUB1.1. Panels (from left to right): DAPI staining, YFP signal, differential interference contrast, merged channel. Scale bar: 10 μm. (b) Co-immunoprecipitation of OsOTUB1.1-GFP and OsSPL14. IB, Immunoblot; IP, immunoprecipitation. (c) Plant morphology. Scale bar: 20 cm. (d) Panicle morphology. Scale bar: 5 cm. (e) OsSPL14 transcript abundance. Transcription relative to the level of the ZH11 plants set to be one. Data shown as mean±s.e.m. (n=3). (f) The number of tillers per plant. (g) The number of grains per panicle. (h) Culm diameter. All phenotypic data were measured from the field-grown plants under normal cultivation conditions. Data in f-h shown as mean±s.e.m. (n=120). The presence of the same lowercase letter denotes a non-significant difference between means (P<0.05).

[7] = target: linear K48-linked tetra-ubiquitin (Boston Biochem)
[8] = target: linear K63-linked tetra-ubiquitin (Boston Biochem)

MBP-WTG1^D68E;C71S;H267R
in vitro deubiquitination assay (cleavage of His-UBQ10, SDS-PAGE and anti-His blot) (His-UBQ10 [1]): MBP-WTG1^wtg1-1, MBP-WTG1^D68E;C71S;H267R and MBP did not cleave His-UBQ10

B1: Myc-OsOTUB1.1 (protein)
chain: MGGDYYHSCCGDPDPDLRAPEGPKLPYVGDKEPLSTLAAEFQSGSPILQEKIKLLGEQYDALRRTRGDGNCFYRSFMFSYLEHILETQDKAEVERILKKIEQCKKTLADLGYIEFTFEDFFSIFIDQLESVLQGHESSIGAEELLERTRDQMVSDYVVMFFRFVTSGEIQRRAEFFEPFISGLTNSTVVQFCKASVEPMGEESDHVHIIALSDALGVPIRVMYLDRSSCDAGNISVNHHDFSPEANSSDGAAAAEKPYITLLYRPGHYDILYPK
accumulation of Flag-OsSPL14 in rice protoplasts (immunoblot) (Flag-OsSPL14, Q7EXZ2): Myc-OsOTUB1 promoted the degradation of Flag-OsSPL14 only in the presence of either WT-, K63O- or K48R-linked ubiquitins | ubiquitination of Flag-OsSPL14 in rice protoplasts (anti-Flag IP, anti-HA blot) (Flag-OsSPL14, Q7EXZ2): In the presence of Myc-OsOTUB1.1, the titer of ubiquitinated Flag-OsSPL14 was clearly decreased in the presence of either K48R or K63O mutations, but it remained unaffected by the presence of either K48O or K63R mutations

B2: OsOTUB1 (enzyme)
chain: MGGDYYHSCCGDPDPDLRAPEGPKLPYVGDKEPLSTLAAEFQSGSPILQEKIKLLGEQYDALRRTRGDGNCFYRSFMFSYLEHILETQDKAEVERILKKIEQCKKTLADLGYIEFTFEDFFSIFIDQLESVLQGHESSIGAEELLERTRDQMVSDYVVMFFRFVTSGEIQRRAEFFEPFISGLTNSTVVQFCKASVEPMGEESDHVHIIALSDALGVPIRVMYLDRSSCDAGNISVNHHDFSPEANSSDGAAAAEKPYITLLYRPGHYDILYPK
notes: Used for sentences that name OsOTUB1 in general or cover several assay formats; also called NPT1; DEP5
binding result (OsSPL14): binds | binding result (OsUBC13): binds

B3: recombinant His-OsOTUB1 fusion protein (protein)
chain: MGGDYYHSCCGDPDPDLRAPEGPKLPYVGDKEPLSTLAAEFQSGSPILQEKIKLLGEQYDALRRTRGDGNCFYRSFMFSYLEHILETQDKAEVERILKKIEQCKKTLADLGYIEFTFEDFFSIFIDQLESVLQGHESSIGAEELLERTRDQMVSDYVVMFFRFVTSGEIQRRAEFFEPFISGLTNSTVVQFCKASVEPMGEESDHVHIIALSDALGVPIRVMYLDRSSCDAGNISVNHHDFSPEANSSDGAAAAEKPYITLLYRPGHYDILYPK
degradation of GST-OsSPL14 in young panicle lysates (anti-GST western blot over time) [2]: the degradation of GST-OsSPL14 was accelerated in lysates made from ZH11-npt1 panicles in the presence of His-OsOTUB1

B4: MBP-WTG1 (protein)
chain: MGGDYYHSCCGDPDPDLRAPEGPKLPYVGDKEPLSTLAAEFQSGSPILQEKIKLLGEQYDALRRTRGDGNCFYRSFMFSYLEHILETQDKAEVERILKKIEQCKKTLADLGYIEFTFEDFFSIFIDQLESVLQGHESSIGAEELLERTRDQMVSDYVVMFFRFVTSGEIQRRAEFFEPFISGLTNSTVVQFCKASVEPMGEESDHVHIIALSDALGVPIRVMYLDRSSCDAGNISVNHHDFSPEANSSDGAAAAEKPYITLLYRPGHYDILYPK
in vitro deubiquitination assay (cleavage of His-UBQ10, SDS-PAGE and anti-His blot) (His-UBQ10 [3]): MBP-WTG1 was capable of cleaving His-UBQ10

B5: full length OsOTUB1.1 in pGBKT7 (enzyme)
chain: MGGDYYHSCCGDPDPDLRAPEGPKLPYVGDKEPLSTLAAEFQSGSPILQEKIKLLGEQYDALRRTRGDGNCFYRSFMFSYLEHILETQDKAEVERILKKIEQCKKTLADLGYIEFTFEDFFSIFIDQLESVLQGHESSIGAEELLERTRDQMVSDYVVMFFRFVTSGEIQRRAEFFEPFISGLTNSTVVQFCKASVEPMGEESDHVHIIALSDALGVPIRVMYLDRSSCDAGNISVNHHDFSPEANSSDGAAAAEKPYITLLYRPGHYDILYPK
notes: Yeast two-hybrid bait; not shown: fusion partner encoded by vector pGBKT7
binding result [4]: binds

B6: C-terminus of YFP-tagged OsOTUB1.1 (enzyme)
chain: MGGDYYHSCCGDPDPDLRAPEGPKLPYVGDKEPLSTLAAEFQSGSPILQEKIKLLGEQYDALRRTRGDGNCFYRSFMFSYLEHILETQDKAEVERILKKIEQCKKTLADLGYIEFTFEDFFSIFIDQLESVLQGHESSIGAEELLERTRDQMVSDYVVMFFRFVTSGEIQRRAEFFEPFISGLTNSTVVQFCKASVEPMGEESDHVHIIALSDALGVPIRVMYLDRSSCDAGNISVNHHDFSPEANSSDGAAAAEKPYITLLYRPGHYDILYPK
notes: BiFC construct expressed in rice protoplasts; also called cYFP-OsOTUB1; cYFP-OsOTUB1.1; not shown: C-terminal fragment of YFP from vector pSY-735-35S-cYFP-HA
binding result [5]: binds | binding result [6]: no binding

B7: recombinant OsOTUB1.1 of the tetra-ubiquitin cleavage assay (protein)
chain: MGGDYYHSCCGDPDPDLRAPEGPKLPYVGDKEPLSTLAAEFQSGSPILQEKIKLLGEQYDALRRTRGDGNCFYRSFMFSYLEHILETQDKAEVERILKKIEQCKKTLADLGYIEFTFEDFFSIFIDQLESVLQGHESSIGAEELLERTRDQMVSDYVVMFFRFVTSGEIQRRAEFFEPFISGLTNSTVVQFCKASVEPMGEESDHVHIIALSDALGVPIRVMYLDRSSCDAGNISVNHHDFSPEANSSDGAAAAEKPYITLLYRPGHYDILYPK
cleavage of linear Lys48-linked tetra-ubiquitin (western blot, anti-ubiquitin) [7]: it showed a strong cleavage activity when presented with Lys48-linked tetra-ubiquitin | cleavage of linear Lys63-linked tetra-ubiquitin (western blot, anti-ubiquitin) [8]: it also displayed a moderate level of activity when presented with the Lys63-linked forms
